Consider one molecule from PMC4661386 (2015).

Experiment [1] deals with T1, CUB_C (CUB module and C-terminal peptide from human TSG-6), wild type (human, UniProt P98066 128-277).
T1 chain: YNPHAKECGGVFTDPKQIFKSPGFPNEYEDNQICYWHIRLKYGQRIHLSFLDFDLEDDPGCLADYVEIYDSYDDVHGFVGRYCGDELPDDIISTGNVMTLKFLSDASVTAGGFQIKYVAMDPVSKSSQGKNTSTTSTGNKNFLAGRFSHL
The experiment in a line: SPR.

For experiment [2], the target named is T2, Full-length human TSG-6 (rhTSG-6), wild type (human, UniProt P98066 18-277). As to the kind of experiment: SPR; + 10 mM EDTA.
Experiment [3] deals with T2, Full-length human TSG-6 (rhTSG-6), wild …. The experiment in a line: SPR; + 10 mM EDTA. This is another data set of the same source.

B1: Recombinant human heavy chain 1 (rHC1) of inter-alpha-inhibitor, wild type (natural protein)
chain: SKSSEKRQAVDTAVDGVFIRSLKVNCKVTSRFAHYVVTSQVVNTANEAREVAFDLEIPKTAFISDFAVTADGNAFIGDIKDKVTAWKQYRKAAISGENAGLVRASGRTMEQFTIHLTVNPQSKVTFQLTYEEVLKRNHMQYEIVIKVKPKQLVHHFEIDVDIFEPQGISKLDAQASFLPKELAAQTIKKSFSGKKGHVLFRPTVSQQQSCPTCSTSLLNGHFKVTYDVSRDKICDLLVANNHFAHFFAPQNLTNMNKNVVFVIDISGSMRGQKVKQTKEALLKILGDMQPGDYFDLVLFGTRVQSWKGSLVQASEANLQAAQDFVRGFSLDEATNLNGGLLRGIEILNQVQESLPELSNHASILIMLTDGDPTEGVTDRSQILKNVRNAIRGRFPLYNLGFGHNVDFNFLEVMSMENNGRAQRIYEDHDATQQLQGFYSQVAKPLLVDVDLQYPQDAVLALTQNHHKQYYEGSEIVVAGRIADNKQSSFKADVQAHGEGQEFSITCLVDEEEMKKLLRERGHMLENHVERLWAYLTIQELLAKRMKVDREERANLSSQALQMSLDYGFVTPLTSMSIRGMADQDGLKPTIDKPSEDSPPLEMLGPRRTFVLSALQPSPTHSSSNTQRLPDRVTGVDTD
For the molecule B1, the koff in experiment [1] stood at 0.0004 s⁻¹; in experiment [3] it was 0.0051 s⁻¹. In addition, the Kd in experiment [2] worked out at 5.1 nM.
